From article PMC3944073
pKd: −log10 of the molar value.

Biological target: GFP-β-DGNLS fusion protein
Test: AlphaScreen or HTRF; ALPHAScreen; His6-tagged GFP-β-DG-NLS at a fixed amount per well with increasing GST-ezrin, GST-IMPα2/β1 or GST alone (0-60 nM); nickel chelate acceptor beads and streptavidin donor beads; room temperature; apparent dissociation constants from sigmoidal fits

- pKd: 8.65
Substance: GST-ezrin (mouse) (from UniProt P26040 1-586) (natural protein)
